# What was measured:
# Assay in all cases: cell-based or functional assay
# [1] = biological target: HIV-1 Env of pseudovirus 1056_10_TA11_1826 (HIV-1)
# [2] = biological target: HIV-1 Env of pseudovirus ZM247v1(Rev-) (HIV-1)
# [3] = biological target: HIV-1 Env of pseudovirus 928-28 (HIV-1)
# [4] = biological target: HIV-1 Env of pseudovirus T250-4 (HIV-1)
# [5] = biological target: HIV-1 Env of pseudovirus Q769.d22 (HIV-1)
# [6] = biological target: HIV-1 Env of pseudovirus 6535.3 (HIV-1)
# [7] = biological target: HIV-1 Env of pseudovirus 0815.v3.c3 (HIV-1)
# [8] = biological target: HIV-1 Env of pseudovirus 191084 B7-19 (HIV-1)
# [9] = biological target: HIV-1 Env of pseudovirus X1193_c1 (HIV-1)
# [10] = biological target: HIV-1 Env of pseudovirus 6240_08_TA5_4622 (HIV-1)
# [11] = biological target: HIV-1 Env of pseudovirus 249M B10 (HIV-1)
# [12] = biological target: HIV-1 Env of pseudovirus TRJO4551.58 (HIV-1)
# [13] = biological target: HIV-1 Env of pseudovirus 3103.v3.c10 (HIV-1)
# [14] = biological target: HIV-1 Env of pseudovirus T257-31 (HIV-1)
# [15] = biological target: HIV-1 Env of pseudovirus R2184.c04 (HIV-1)
# [16] = biological target: HIV-1 Env of pseudovirus 1394C9G1(Rev-) (HIV-1)
# [17] = biological target: HIV-1 Env of pseudovirus PVO.4 (HIV-1)
# [18] = biological target: HIV-1 Env of pseudovirus Q842.d12 (HIV-1)
# [19] = biological target: HIV-1 Env of pseudovirus CAP45.2.00.G3 (HIV-1)
# [20] = biological target: HIV-1 Env of pseudovirus 263-8 (HIV-1)
# [21] = biological target: HIV-1 Env of pseudovirus 9004SS_A3_4 (HIV-1)
# [22] = biological target: HIV-1 Env of pseudovirus BJOX015000.11.5 (HIV-1)
# [23] = biological target: HIV-1 Env of pseudovirus 3301.v1.c24 (HIV-1)
# [24] = biological target: HIV-1 Env of pseudovirus Q23.17 (HIV-1)
# [25] = biological target: HIV-1 Env of pseudovirus 3016.v5.c45 (HIV-1)
# [26] = biological target: HIV-1 Env of pseudovirus Q461.e2 (HIV-1)
# [27] = biological target: HIV-1 Env of pseudovirus Ce2060_G9 (HIV-1)
# [28] = biological target: HIV-1 Env of pseudovirus HIV-001428-2.42 (HIV-1)
# [29] = biological target: HIV-1 Env of pseudovirus Du422.1 (HIV-1)
# [30] = biological target: HIV-1 Env of pseudovirus Du156.12 (HIV-1)
# [31] = biological target: HIV-1 Env of pseudovirus T278-50 (HIV-1)
# [32] = biological target: HIV-1 Env of pseudovirus HIV-0013095-2.11 (HIV-1)
# [33] = biological target: HIV-1 Env of pseudovirus 191955_A11 (HIV-1)
# [34] = biological target: HIV-1 Env of pseudovirus CNE53 (HIV-1)
# [35] = biological target: HIV-1 Env of pseudovirus 89-F1_2_25 (HIV-1)
# [36] = biological target: HIV-1 Env of pseudovirus CNE17 (HIV-1)
# [37] = biological target: HIV-1 Env of pseudovirus BJOX009000.02.4 (HIV-1)
substance,measurement,setting,value
VRC07 (antibody),neutralization IC50,[1],0.239 µg/mL
same,neutralization IC80,[1],1.11 µg/mL
same,neutralization IC50,[2],0.041 µg/mL
same,neutralization IC80,[2],0.189 µg/mL
same,neutralization IC50,[3],0.278 µg/mL
same,neutralization IC80,[3],0.957 µg/mL
same,"IC50, titer in TZM.bl cells",[4],> 50 µg/mL
same,"IC80, titer in TZM.bl cells",[4],> 50 µg/mL
same,neutralization IC50,[5],0.018 µg/mL
same,neutralization IC80,[5],0.087 µg/mL
same,neutralization IC50,[6],0.169 µg/mL
same,neutralization IC80,[6],0.517 µg/mL
same,"IC50, titer in TZM.bl cells",[7],0.015 µg/mL
same,"IC80, titer in TZM.bl cells",[7],0.051 µg/mL
same,neutralization IC50,[8],0.061 µg/mL
same,neutralization IC80,[8],0.209 µg/mL
same,"IC50, titer in TZM.bl cells",[9],0.037 µg/mL
same,"IC80, titer in TZM.bl cells",[9],0.249 µg/mL
same,neutralization IC50,[10],0.448 µg/mL
same,neutralization IC80,[10],1.54 µg/mL
same,neutralization IC50,[11],0.052 µg/mL
same,neutralization IC80,[11],0.204 µg/mL
same,neutralization IC50,[12],0.032 µg/mL
same,neutralization IC80,[12],0.125 µg/mL
same,"IC50, titer in TZM.bl cells",[13],0.675 µg/mL
same,"IC80, titer in TZM.bl cells",[13],1.95 µg/mL
same,neutralization IC50,[14],0.421 µg/mL
same,neutralization IC80,[14],3.17 µg/mL
same,"IC50, titer in TZM.bl cells",[15],0.02 µg/mL
same,"IC80, titer in TZM.bl cells",[15],0.104 µg/mL
same,neutralization IC50,[16],0.112 µg/mL
same,neutralization IC80,[16],0.368 µg/mL
same,neutralization IC50,[17],0.063 µg/mL
same,neutralization IC80,[17],0.226 µg/mL
same,neutralization IC50,[18],0.015 µg/mL
same,neutralization IC80,[18],0.051 µg/mL
same,neutralization IC50,[19],0.355 µg/mL
same,neutralization IC80,[19],3.09 µg/mL
same,neutralization IC50,[20],0.103 µg/mL
same,neutralization IC80,[20],0.282 µg/mL
same,neutralization IC50,[21],0.218 µg/mL
same,neutralization IC80,[21],0.75 µg/mL
same,"IC50, titer in TZM.bl cells",[22],0.054 µg/mL
same,"IC80, titer in TZM.bl cells",[22],0.479 µg/mL
same,"IC50, titer in TZM.bl cells",[23],0.027 µg/mL
same,"IC80, titer in TZM.bl cells",[23],0.073 µg/mL
same,neutralization IC50,[24],0.081 µg/mL
same,neutralization IC80,[24],0.236 µg/mL
same,"IC50, titer in TZM.bl cells",[25],0.095 µg/mL
same,"IC80, titer in TZM.bl cells",[25],0.392 µg/mL
same,neutralization IC50,[26],0.282 µg/mL
same,neutralization IC80,[26],1.02 µg/mL
same,neutralization IC50,[27],0.085 µg/mL
same,neutralization IC80,[27],0.422 µg/mL
same,neutralization IC50,[28],0.004 µg/mL
same,neutralization IC80,[28],0.016 µg/mL
same,neutralization IC50,[29],> 50 µg/mL
same,neutralization IC80,[29],> 50 µg/mL
same,neutralization IC50,[30],0.041 µg/mL
same,neutralization IC80,[30],0.149 µg/mL
same,"IC50, titer in TZM.bl cells",[31],> 50 µg/mL
same,"IC80, titer in TZM.bl cells",[31],> 50 µg/mL
same,neutralization IC50,[32],0.017 µg/mL
same,neutralization IC80,[32],0.057 µg/mL
same,neutralization IC50,[33],0.978 µg/mL
same,neutralization IC80,[33],4.82 µg/mL
same,neutralization IC50,[34],0.031 µg/mL
same,neutralization IC80,[34],0.086 µg/mL
same,"IC50, titer in TZM.bl cells",[35],> 50 µg/mL
same,"IC80, titer in TZM.bl cells",[35],> 50 µg/mL
same,neutralization IC50,[36],0.136 µg/mL
same,neutralization IC80,[36],0.651 µg/mL
same,"IC50, titer in TZM.bl cells",[37],0.806 µg/mL
same,"IC80, titer in TZM.bl cells",[37],2.9 µg/mL
